T1: human EphA1 extracellular region-SEAP-His protein (human, UniProt P21709 26-547)
T1 construct: extracellular domain; also called hEphA1-SEAP-His
T1 sequence (looked up): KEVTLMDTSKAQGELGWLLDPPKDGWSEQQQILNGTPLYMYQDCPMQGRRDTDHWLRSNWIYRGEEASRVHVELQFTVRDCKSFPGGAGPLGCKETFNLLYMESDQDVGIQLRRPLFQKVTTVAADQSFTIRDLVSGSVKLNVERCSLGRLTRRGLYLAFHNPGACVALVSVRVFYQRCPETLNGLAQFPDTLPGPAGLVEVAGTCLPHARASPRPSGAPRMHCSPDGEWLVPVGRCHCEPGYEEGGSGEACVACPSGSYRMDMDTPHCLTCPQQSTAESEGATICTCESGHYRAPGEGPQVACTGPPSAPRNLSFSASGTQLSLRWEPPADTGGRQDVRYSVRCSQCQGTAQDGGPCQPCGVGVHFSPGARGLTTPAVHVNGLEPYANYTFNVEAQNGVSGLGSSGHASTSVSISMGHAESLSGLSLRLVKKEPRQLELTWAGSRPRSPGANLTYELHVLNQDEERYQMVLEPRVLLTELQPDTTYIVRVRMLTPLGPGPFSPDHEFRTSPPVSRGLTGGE

T2: human EphB1 extracellular region-SEAP-His protein (human, UniProt P54762 18-540)
T2 construct: extracellular domain; also called hEphB1-SEAP-His
T2 sequence (looked up): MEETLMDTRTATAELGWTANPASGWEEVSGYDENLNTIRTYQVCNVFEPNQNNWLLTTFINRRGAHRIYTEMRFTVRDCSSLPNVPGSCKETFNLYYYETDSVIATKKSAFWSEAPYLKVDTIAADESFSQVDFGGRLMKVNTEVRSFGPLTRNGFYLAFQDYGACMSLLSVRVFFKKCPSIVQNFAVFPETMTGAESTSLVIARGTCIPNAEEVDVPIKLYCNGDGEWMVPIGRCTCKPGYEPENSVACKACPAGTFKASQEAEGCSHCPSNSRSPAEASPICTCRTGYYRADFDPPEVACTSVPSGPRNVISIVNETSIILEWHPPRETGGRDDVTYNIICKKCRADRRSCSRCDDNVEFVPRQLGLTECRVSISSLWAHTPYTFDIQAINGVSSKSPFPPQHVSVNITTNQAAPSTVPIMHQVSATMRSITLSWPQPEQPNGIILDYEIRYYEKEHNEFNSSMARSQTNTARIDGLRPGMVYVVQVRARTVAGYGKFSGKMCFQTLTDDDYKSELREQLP

T3: human EphA3 extracellular region-SEAP-His protein (human, UniProt P29320 21-541)
T3 construct: extracellular domain; also called hEphA3-SEAP-His
T3 sequence (looked up): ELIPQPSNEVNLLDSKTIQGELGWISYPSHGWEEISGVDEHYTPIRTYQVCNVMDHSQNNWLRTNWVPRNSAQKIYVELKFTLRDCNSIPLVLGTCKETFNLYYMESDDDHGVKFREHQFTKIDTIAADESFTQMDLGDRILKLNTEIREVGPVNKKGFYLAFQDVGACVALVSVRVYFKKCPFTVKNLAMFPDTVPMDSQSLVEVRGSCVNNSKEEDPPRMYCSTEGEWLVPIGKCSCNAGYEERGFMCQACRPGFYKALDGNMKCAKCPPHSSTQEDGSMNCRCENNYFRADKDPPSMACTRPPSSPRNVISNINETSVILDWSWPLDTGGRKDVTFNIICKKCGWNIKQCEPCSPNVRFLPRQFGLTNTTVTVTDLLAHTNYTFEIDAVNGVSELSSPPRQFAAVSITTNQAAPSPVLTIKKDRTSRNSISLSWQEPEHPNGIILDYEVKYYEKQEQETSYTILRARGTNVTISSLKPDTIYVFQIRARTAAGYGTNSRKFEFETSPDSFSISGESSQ

T4: human EphA6 extracellular region-SEAP-His protein (human, UniProt Q9UF33 23-550)
T4 construct: extracellular domain; also called hEphA6-SEAP-His
T4 sequence (looked up): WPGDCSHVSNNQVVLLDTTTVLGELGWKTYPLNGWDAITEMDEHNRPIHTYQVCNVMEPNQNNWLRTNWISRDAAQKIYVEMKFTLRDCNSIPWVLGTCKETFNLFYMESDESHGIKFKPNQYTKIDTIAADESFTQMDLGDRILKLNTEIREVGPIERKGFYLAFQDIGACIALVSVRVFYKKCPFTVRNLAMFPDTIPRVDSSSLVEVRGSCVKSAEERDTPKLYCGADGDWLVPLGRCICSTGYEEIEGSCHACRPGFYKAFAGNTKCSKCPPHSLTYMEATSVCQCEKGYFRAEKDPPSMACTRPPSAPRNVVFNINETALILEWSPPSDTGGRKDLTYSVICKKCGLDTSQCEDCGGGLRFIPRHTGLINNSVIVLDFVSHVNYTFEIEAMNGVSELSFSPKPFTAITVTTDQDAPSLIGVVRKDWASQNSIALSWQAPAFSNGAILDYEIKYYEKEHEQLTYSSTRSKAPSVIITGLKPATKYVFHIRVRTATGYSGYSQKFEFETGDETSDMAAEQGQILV


Columns and labels:
Assay in all cases: ELISA
[1] = biological target: T5, human EphA4 extracellular region-SEAP-His protein (human, UniProt P54764 20-547)
T5 construct: also called hEphA4-SEAP-His

[2] = biological target: T1, human EphA1 extracellular …
[3] = biological target: T2, human EphB1 extracellular …
[4] = biological target: T3, human EphA3 extracellular …
[5] = biological target: T4, human EphA6 extracellular …
SEAP-His = SEAP-His (UniProt P05187 23-511)
Chain of SEAP-His (P05187 23-511): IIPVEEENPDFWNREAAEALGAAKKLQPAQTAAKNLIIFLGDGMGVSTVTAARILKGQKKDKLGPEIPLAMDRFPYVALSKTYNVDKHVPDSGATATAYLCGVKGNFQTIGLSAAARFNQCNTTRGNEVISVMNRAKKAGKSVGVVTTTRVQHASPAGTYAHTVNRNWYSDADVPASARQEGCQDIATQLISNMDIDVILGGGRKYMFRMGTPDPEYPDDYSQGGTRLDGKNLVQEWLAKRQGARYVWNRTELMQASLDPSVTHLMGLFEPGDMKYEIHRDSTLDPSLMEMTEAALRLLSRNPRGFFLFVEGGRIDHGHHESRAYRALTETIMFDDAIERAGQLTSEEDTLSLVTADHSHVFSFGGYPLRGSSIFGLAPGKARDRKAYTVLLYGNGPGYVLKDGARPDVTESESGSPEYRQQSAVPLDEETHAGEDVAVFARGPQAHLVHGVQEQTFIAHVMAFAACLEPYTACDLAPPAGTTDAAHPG

T5 sequence (P54764 20-547): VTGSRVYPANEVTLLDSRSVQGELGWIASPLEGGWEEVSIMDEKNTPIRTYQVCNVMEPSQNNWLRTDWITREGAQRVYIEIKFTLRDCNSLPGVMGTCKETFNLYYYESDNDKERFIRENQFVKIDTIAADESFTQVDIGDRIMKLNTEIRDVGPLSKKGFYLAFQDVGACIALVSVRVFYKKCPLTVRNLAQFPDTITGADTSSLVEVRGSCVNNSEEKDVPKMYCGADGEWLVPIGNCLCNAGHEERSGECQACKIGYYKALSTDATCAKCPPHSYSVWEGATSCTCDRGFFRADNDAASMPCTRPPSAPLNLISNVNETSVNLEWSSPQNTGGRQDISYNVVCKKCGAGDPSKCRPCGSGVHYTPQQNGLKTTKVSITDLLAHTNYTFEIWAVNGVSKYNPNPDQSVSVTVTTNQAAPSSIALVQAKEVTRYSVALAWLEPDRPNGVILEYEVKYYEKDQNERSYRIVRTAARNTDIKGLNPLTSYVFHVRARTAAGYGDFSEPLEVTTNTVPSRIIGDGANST

A450 as % of hEphA4-SEAP-His [1] [%] | A450 as % of hEphA4-SEAP-His [2] [%] | A450 as % of hEphA4-SEAP-His [3] [%] | A450 as % of hEphA4-SEAP-His [4] [%] | A450 as % of hEphA4-SEAP-His [5] [%] | A450 as % of hEphA4-SEAP-His (SEAP-His) [%] | Binder
100 | 6.1 | 5.8 | 5.6 | 7.1 | 5.9 | humanized antibody No. 137 (antibody, human IgG2, human Ig kappa; also called L2-4/HK4) heavy: QIQLVQSGSELKKPGASVKVSCKASGYTFTDYSMHWVRQAPGQGLKWMGWINTETGEPTYADDFKGRFVFSLDTSVSTAYLQISSLKAEDTAVYYCARIPLYYYGSRYWYFDVWGQGTTVTVSSASTKGPSVFPLAPSSRSTSESTAALGCLVKDYFPEPVTVSWNSGALTSGVHTFPAVLQSSGLYSLSSVVTVPSSNFGTQTYTCNVDHKPSNTKVDKTVERKSCVECPPCPAPPAAAPSVFLFPPKPKDTLMISRTPEVTCVVVDVSHEDPEVQFNWYVDGVEVHNAKTKPREEQFNSTFRVVSVLTVVHQDWLNGKEYKCKVSNKGLPAPIEKTISKTKGQPREPQVYTLPPSREEMTKNQVSLTCLVKGFYPSDIAVEWESNGQPENNYKTTPPMLDSDGSFFLYSKLTVDKSRWQQGNVFSCSVMHEALHNHYTQKSLSLSPG light: EIVMTQSPATLSVSPGERATLSCRASENIYRNLAWYQQKPGQSPRLLIYAATNLADGIPARFSGSGSGTEYTLTISSLQSEDFAVYYCQHFWGTPWTFGQGTKVEIKRTVAAPSVFIFPPSDEQLKSGTASVVCLLNNFYPREAKVQWKVDNALQSGNSQESVTEQDSKDSTYSLSSTLTLSKADYEKHKVYACEVTHQGLSSPVTKSFNRGEC
100 | 5.3 | 5.2 | 5.2 | 7.2 | 5.2 | humanized antibody No. 136 (antibody, human IgG2, human Ig kappa; also called L2-4/HK2) heavy: QVQLVQSGSELKKPGASVKVSCKASGYTFTDYSMHWVRQAPGQGLKWMGWINTETGEPTYADDFKGRFVFSLDTSVSTAYLQISSLKAEDTAVYYCARIPLYYYGSRYWYFDVWGQGTTVTVSSASTKGPSVFPLAPSSRSTSESTAALGCLVKDYFPEPVTVSWNSGALTSGVHTFPAVLQSSGLYSLSSVVTVPSSNFGTQTYTCNVDHKPSNTKVDKTVERKSCVECPPCPAPPAAAPSVFLFPPKPKDTLMISRTPEVTCVVVDVSHEDPEVQFNWYVDGVEVHNAKTKPREEQFNSTFRVVSVLTVVHQDWLNGKEYKCKVSNKGLPAPIEKTISKTKGQPREPQVYTLPPSREEMTKNQVSLTCLVKGFYPSDIAVEWESNGQPENNYKTTPPMLDSDGSFFLYSKLTVDKSRWQQGNVFSCSVMHEALHNHYTQKSLSLSPG light: EIVMTQSPATLSVSPGERATLSCRASENIYRNLAWYQQKPGQSPRLLIYAATNLADGIPARFSGSGSGTEYTLTISSLQSEDFAVYYCQHFWGTPWTFGQGTKVEIKRTVAAPSVFIFPPSDEQLKSGTASVVCLLNNFYPREAKVQWKVDNALQSGNSQESVTEQDSKDSTYSLSSTLTLSKADYEKHKVYACEVTHQGLSSPVTKSFNRGEC

The next lines start with the binder.

Binder | A450 as % of hEphA4-SEAP-His [1] [%] | A450 as % of hEphA4-SEAP-His [2] [%] | A450 as % of hEphA4-SEAP-His [3] [%] | A450 as % of hEphA4-SEAP-His [4] [%] | A450 as % of hEphA4-SEAP-His [5] [%] | A450 as % of hEphA4-SEAP-His (SEAP-His) [%]
humanized antibody No. 135 (antibody, human IgG2, human Ig kappa; also called L2-4/HK1) heavy: QVQLVQSGSELKKPGASVKVSCKASGYTFTDYSMHWVRQAPGQGLEWMGWINTETGEPTYADDFKGRFVFSLDTSVSTAYLQISSLKAEDTAVYYCARIPLYYYGSRYWYFDVWGQGTTVTVSSASTKGPSVFPLAPSSRSTSESTAALGCLVKDYFPEPVTVSWNSGALTSGVHTFPAVLQSSGLYSLSSVVTVPSSNFGTQTYTCNVDHKPSNTKVDKTVERKSCVECPPCPAPPAAAPSVFLFPPKPKDTLMISRTPEVTCVVVDVSHEDPEVQFNWYVDGVEVHNAKTKPREEQFNSTFRVVSVLTVVHQDWLNGKEYKCKVSNKGLPAPIEKTISKTKGQPREPQVYTLPPSREEMTKNQVSLTCLVKGFYPSDIAVEWESNGQPENNYKTTPPMLDSDGSFFLYSKLTVDKSRWQQGNVFSCSVMHEALHNHYTQKSLSLSPG light: EIVMTQSPATLSVSPGERATLSCRASENIYRNLAWYQQKPGQSPRLLIYAATNLADGIPARFSGSGSGTEYTLTISSLQSEDFAVYYCQHFWGTPWTFGQGTKVEIKRTVAAPSVFIFPPSDEQLKSGTASVVCLLNNFYPREAKVQWKVDNALQSGNSQESVTEQDSKDSTYSLSSTLTLSKADYEKHKVYACEVTHQGLSSPVTKSFNRGEC | 100 | 5.2 | 5.1 | 5 | 7 | 5.3
humanized antibody No. 94 (antibody, human IgG1, kappa, human Ig kappa; also called L2-4/HA2) heavy: QVQLVQSGSELKKPGASVKVSCKASGYTFTDYSMHWVRQAPGQGLKWMGWINTETGEPTYAQGFTGRFVFSLDTSVSTAYLQISSLKAEDTAVYYCARIPLYYYGSRYWYFDVWGQGTTVTVSSASTKGPSVFPLAPSSKSTSGGTAALGCLVKDYFPEPVTVSWNSGALTSGVHTFPAVLQSSGLYSLSSVVTVPSSSLGTQTYICNVNHKPSNTKVDKRVEPKSCDKTHTCPPCPAPPAAAPSVFLFPPKPKDTLMISRTPEVTCVVVDVSHEDPEVQFNWYVDGVEVHNAKTKPREEQFNSTFRVVSVLTVVHQDWLNGKEYKCKVSNKGLPAPIEKTISKTKGQPREPQVYTLPPSREEMTKNQVSLTCLVKGFYPSDIAVEWESNGQPENNYKTTPPMLDSDGSFFLYSKLTVDKSRWQQGNVFSCSVMHEALHNHYTQKSLSLSPG light: EIVMTQSPATLSVSPGERATLSCRASENIYRNLAWYQQKPGQSPRLLIYAATNLADGIPARFSGSGSGTEYTLTISSLQSEDFAVYYCQHFWGTPWTFGQGTKVEIKRTVAAPSVFIFPPSDEQLKSGTASVVCLLNNFYPREAKVQWKVDNALQSGNSQESVTEQDSKDSTYSLSSTLTLSKADYEKHKVYACEVTHQGLSSPVTKSFNRGEC | 100 | 6.5 | 6.7 | 6.8 | 8.6 | 6.7

From patent publication US20190077860A1 (EISAI R AND D MANAGEMENT, published 2019)
